# US11560566B2, “Aptazyme-embedded guide RNAs for use with CRISPR-Cas9 in genome editing and transcriptional activation” (President and Fellows of Harvard College, priority 2017, dated 2023)
# Where a chain is given by its changes, count along the chain named.
# B1: 5′ spacer-blocked sgRNA: sgRNA with 42-nucleotide linker and 6-nucleotide blocking sequence complementary to the spacer at the 5′ end (nucleic acid)
# guide: GGUGCCCGUAGUAGUAGUAGCAACCACGUCGCGUCCGUAGUAGUAGUAGGGCACGGGCAGCUUGCCGGGUUUUAGAGCUAGAAAUAGCAAGUUAAAAUAAGGCUAGUCCGUUAUCAACUUGAAAAAGUGGCACCGAGUCGGUGCUUUUUUU
# B2: blocked tracrRNA: tracrRNA with 42-nucleotide linker and 10-nucleotide blocking sequence appended to the 5′ end (nucleic acid)
# chain: GGAUUUUAACUUUAGUAGUAGUAGGCAACCACGUCGCGUCCUAGUAGGCAUAGCAAGUUAAAAUAAGGCUAGUCCGUUAUCAACUUGAAAAAGUGGCACCGAGUCGGUGCUUUUUUU
# modifications: unmodified RNA
# B3: guanine-agRNA: guanine-aptazyme-embedded guide RNA for GFP activation (nucleic acid)
# guide: GCAAGCUGCCCGUGCCCGGUACAUCCAGCUGAUGAGUCCCAAAUAGGACGAAAUACUAUAAUCGCGUGGAUAUGGCACGCAAGUUUCUACCGGGCACCGUAAAUGUCCGACUAGUGUCCUGGAUUCCACGGGCACGGGCAGCUUGCCGGGUUUUAGAGCUAGAAAUAGCAAGUUAAAAUAAGGCUAGUCCGUUAUCAACUUGAAAAAGUGGCACCGAGUCGGUGCUUUUUUU
# B4: (d) guanine-agRNA: non-splicing mutant of guanine-agRNA (nucleic acid)
# chain: B3 guide with A52G
# B5: guanine-agRNA with three bulges: guanine-agRNA with bulged blocker and a different spacer for RFP activation (nucleic acid)
# guide: ACUGCGGGAUGGAGGAGACGGUACAUCCAGCUGAUGAGUCCCAAAUAGGACGAAAUACUAUAAUCGCGUGGAUAUGGCACGCAAGUUUCUACCGGGCACCGUAAAUGUCCGACUAGUGUCCUGGAUUCCACGUCCCCUCCACCCCACAGUGGUUUUAGAGCUAGAAAUAGCAAGUUAAAAUAAGGCUAGUCCGUUAUCAACUUGAAAAAGUGGCACCGAGUCGGUGCUUUUUUU
# B6: post-cleavage sgRNA: processed HHR-bsgRNA without the blocking sequence, 11 extra nucleotides at the 5′ end (nucleic acid)
# guide: GCUGGAUUCCACGGGCACGGGCAGCUUGCCGGGUUUUAGAGCUAGAAAUAGCAAGUUAAAAUAAGGCUAGUCCGUUAUCAACUUGAAAAAGUGGCACCGAGUCGGUGCUUUUUUU
# modifications: chemistry not given here
# B7: canonical sgRNA: canonical Streptococcus pyogenes single guide RNA targeting GFP, positive control (nucleic acid)
# guide: GGGCACGGGCAGCUUGCCGGGUUUUAGAGCUAGAAAUAGCAAGUUAAAAUAAGGCUAGUCCGUUAUCAACUUGAAAAAGUGGCACCGAGUCGGUGCUUUUUUU
# modifications: chemistry not given here
# notes: canonical Streptococcus pyogenes single guide RNA targeting GFP, positive control
# B8: blocked crRNA: crRNA with 42-nucleotide linker and 10-nucleotide blocking sequence appended to the 3′ end (nucleic acid)
# guide: GGGCACGGGCAGCUUGCCGGGUUUUAGAGCUAUGCUGUUUUGGAUGGCAACCACGUCGCGUCCUGUAGUAGUAUGAUAGCUCUAA
# modifications: unmodified RNA
# Columns and labels:
# [1] = tested on: GFP gene (modified promoter) in HEK293T cells; test: Transcriptional activation of GFP reporter with dCas9-VPR in HEK293T cells; assay type: cell-based, human
# Excerpt: In addition to genome editing, transcriptional regulation is another widely used application of CRISPR-Cas9^4. To further explore the utility of agRNAs, we sought to develop an agRNA that responds to a different small-molecule ligand and activates the expression of a guide RNA-specified target gene, rather than editing a target gene through DNA cleavage. A previously reported guanine-aptazyme^24 that contains a naturally occurring guanine aptamer^25 was incorporated into the guide RNA and the resulting guanine-agRNA was tested for its ability to activate transcription of a GFP gene in HEK293T cells (FIG. 3c). […] In the presence of an active guide RNA, dCas9-VPR initiates transcription of GFP, ultimately resulting in cell fluorescence.
# (§1) To each well in a 48-well plate, 200 ng of dCas9-VPR plasmid, 0.5 ng of guide RNA plasmid and 60 ng of reporter plasmid were transfected using 1.2 μL Lipofectamine 2000. […] Cells were harvested 20 h after transfection.
# FANCF site = test: Theophylline-dependent base editing (BE3), FANCF site; assay type: cell-based, human; conditions: ligand concentration 4 mM
# Excerpt: Cells were harvested 3 days after transfection.
# [2] = tested on: target dsDNA (full GFP gene); test: In vitro DNA cleavage assay (Cas9 + guide RNA); assay type: biochemical; conditions: 10 nM target DNA, 100 nM guide RNA, 100 nM Cas9, 37° C.; for target DNA cleavage followed by gel electrophoresis: 1 h for sgRNA variants, 5 h for crRNA and tracrRNA variants
# Procedure: The blocker-linked guide RNAs were prepared by in vitro transcription and incubated in vitro with Cas9 protein and a target dsDNA. Target DNA cleavage was followed by gel electrophoresis (FIG. 1b).
# SpCas9 protein was purified as previously described^1,35. Guide RNAs were transcribed using a T7 High Yield RNA Synthesis Kit (NEB) following the manufacturer's protocol, and purified with the E.Z.N.A. PF miRNA Isolation Kit (Omega Bio-tek, Inc.). The target dsDNA (full GFP gene) was amplified by polymerase chain reaction and purified using QlAquick PCR Purification Kit (QIAGEN). For the cleavage reaction, 10 nM of the target DNA was incubated with 100 nM of the guide RNA in the presence of 100 nM Cas9 protein in a Cas9 DNA cleavage buffer (150 mM KCl, 10 mM MgCl2, 0.5 mM DTT, 0.1 mM EDTA, 20 mM HEPES pH 7.5). In vitro editing reactions were incubated at 37° C. for 1 h for sgRNA and its variants and the reactions for crRNA and tracrRNA and their variants were incubated at 37° C. for 5 h before being stopped with 6×DNA loading buffer and analyzed by non-denaturing agarose gel electrophoresis.
# [3] = tested on: RFP reporter in HEK293T cells; test: Transcriptional activation of RFP reporter with dCas9-VPR in HEK293T cells; assay type: cell-based, human; conditions: different spacer sequence
# Procedure: To further generalize this strategy, we tested the guanine-agRNA with three bulges for RFP activation in HEK293T cells with a different spacer sequence that is unrelated to the spacer used to target GFP.
# as §1
# [4] = tested on: endogenous GFP locus in HEK293-GFP cells
# Excerpt: To compare the activities of the guide RNAs with the blocking region either present or removed, a non-cleaving “dead” variant of HHR-bsgRNA (dHHR-bsgRNA) containing a single A to G point mutation in the catalytic loop of the hammerhead ribozyme was produced. To optimize the restoration of guide RNA activity by self-cleavage of the hammerhead ribozyme, the length of the blocking sequence was varied. Three sets of HHR-bsgRNAs and dHHR-bsgRNAs with blocking sequences of 10 to 17 nucleotides were constructed. The genome editing activities of these sgRNA variants in the presence of Cas9 in human embryonic kidney cells harboring genomic GFP genes (HEK293-GFP) were assayed by targeting the endogenous GFP locus (FIG. 2a).
# HEK293 cells with integrated GFP genes (GenTarget Inc.) were cultured in 48-well plates (40,000 cells seeded per well) in Dulbecco's Modified Eagle's Media plus GlutaMAX (DMEM, Life Technologies) with 10% FBS. Plasmids were transfected ˜20 h after plating when cells reached ˜70% confluence. To edit the GFP genes in HEK293 cells, 100 ng of Cas9 plasmid and 2 ng of guide RNA plasmid were transfected in each well using 1.2 μL Lipofectamine 2000 (Life Technologies) following the manufacturer's protocol. To distinguish transfected cells from non-transfected cells, 2 ng of an iRFP expression plasmid was co-transfected. A stock solution of 100 mM theophylline was made in 60 mM NaOH and was supplied to cells 6 h after plasmid transfection at designed concentrations. The cells were incubated for additional 7 days before analysis and media was changed at day 3, 5 and 6. Fresh theophylline was supplied immediately at the same concentration as in the initial condition each time the media was changed. GFP fluorescence was quantified by flow cytometry and the transfected live population was gated by iRFP signal.
molecule,measurement,setting,value
"Nc1nc2nc[nH]c2c(=O)[nH]1 [guanine, reference compound]",effect of guanine on GFP fluorescence,"[1]; guanine in the medium from 0 to 200 μM, cells with (d) guanine-agRNA",slightly reduced GFP fluorescence
Cn1c(=O)[nH]c(=O)c2[nH]cnc21 [3-methylxanthine],"response of theophylline-agRNA-mediated base editing to ligand, fold less strongly than to theophylline",FANCF site,2 fold
B1,target DNA cleavage followed by gel electrophoresis,[2],no cleavage product could be detected
B2,target DNA cleavage followed by gel electrophoresis,[2],partial cleavage of the target DNA
B3,off-state activity (GFP fluorescence),"[1]; absence of guanine, compared to control cells lacking any guide RNA",elevated GFP fluorescence
same,activation of GFP fluorescence,[1]; guanine added to media at 50 μM,5 fold
B4,GFP activation by guanine,"[1]; guanine 50 μM (dHHR-bsgRNA) or different concentrations ((d) guanine-agRNA), dCas9-VPR",only a low level of GFP expression that could no longer be activated by guanine
B5,guanine-dependent RFP activation ratio,[3],~3 fold
B6,activity compared to the unmodified guide RNA,"[4]; HEK293-GFP cells, Cas9, sgRNA with 11 extra nucleotides at the 5′ end",maintained most of its activity
B7,cleavage efficiency,[2]; 1 h,~100%
same,activity relative to that of the activated agRNA,"[4]; loss beyond the off-state, 62% vs 48%",1.3 fold
same,loss beyond the off-state,[4]; wild-type Cas9,62%
same,GFP loss,"[4]; wild-type Cas9, canonical guide, positive control",72%
B8,target DNA cleavage followed by gel electrophoresis,[2],partial cleavage of the target DNA
